{"source": "patent US20230295571A1", "about": "“COMPOSITIONS AND METHODS FOR STEM CELL CHONDROGENESIS” (Washington University, priority 2020, published 2023)", "molecules": {"B1": {"name": "WNT3A: WNT ligand (R&D Systems) added at 100 ng/ml (protein, UniProt P56704 19-352, looked up)", "Protein Wnt-3a": "SYPIWWSLAVGPQYSSLGSQPILCASIPGLVPKQLRFCRNYVEIMPSVAEGIKIGIQECQHQFRGRRWNCTTVHDSLAIFGPVLDKATRESAFVHAIASAGVAFAVTRSCAEGTAAICGCSSRHQGSPGKGWKWGGCSEDIEFGGMVSREFADARENRPDARSAMNRHNNEAGRQAIASHMHLKCKCHGLSGSCEVKTCWWSQPDFRAIGDFLKDKYDSASEMVVEKHRESRGWVETLRPRYTYFKVPTERDLVYYEASPNFCEPNPETGSFGTRDRTCNVSSHGIDGCDLLCCGRGHNARAERRREKCRCVFHWCCYVSCQECTRVYDVHTCK"}, "B2": {"name": "WNT7B: WNT ligand (R&D system) added at 100 ng/ml (protein, UniProt P56706 25-349, looked up)", "Protein Wnt-7b": "ALSSVVALGANIICNKIPGLAPRQRAICQSRPDAIIVIGEGAQMGINECQYQFRFGRWNCSALGEKTVFGQELRVGSREAAFTYAITAAGVAHAVTAACSQGNLSNCGCDREKQGYYNQAEGWKWGGCSADVRYGIDFSRRFVDAREIKKNARRLMNLHNNEAGRKVLEDRMQLECKCHGVSGSCTTKTCWTTLPKFREVGHLLKEKYNAAVQVEVVRASRLRQPTFLRIKQLRSYQKPMETDLVYIEKSPNYCEEDAATGSVGTQGRLCNRTSPGADGCDTMCCGRGYNTHQYTKVWQCNCKFHWCCFVKCNTCSERTEVFTCK"}}, "key": {"VEGFR2": {"molecular_target": "VEGFR2 (Homo sapiens, UniProt P35968)", "sequence (P35968 20-1356, species assumed)": "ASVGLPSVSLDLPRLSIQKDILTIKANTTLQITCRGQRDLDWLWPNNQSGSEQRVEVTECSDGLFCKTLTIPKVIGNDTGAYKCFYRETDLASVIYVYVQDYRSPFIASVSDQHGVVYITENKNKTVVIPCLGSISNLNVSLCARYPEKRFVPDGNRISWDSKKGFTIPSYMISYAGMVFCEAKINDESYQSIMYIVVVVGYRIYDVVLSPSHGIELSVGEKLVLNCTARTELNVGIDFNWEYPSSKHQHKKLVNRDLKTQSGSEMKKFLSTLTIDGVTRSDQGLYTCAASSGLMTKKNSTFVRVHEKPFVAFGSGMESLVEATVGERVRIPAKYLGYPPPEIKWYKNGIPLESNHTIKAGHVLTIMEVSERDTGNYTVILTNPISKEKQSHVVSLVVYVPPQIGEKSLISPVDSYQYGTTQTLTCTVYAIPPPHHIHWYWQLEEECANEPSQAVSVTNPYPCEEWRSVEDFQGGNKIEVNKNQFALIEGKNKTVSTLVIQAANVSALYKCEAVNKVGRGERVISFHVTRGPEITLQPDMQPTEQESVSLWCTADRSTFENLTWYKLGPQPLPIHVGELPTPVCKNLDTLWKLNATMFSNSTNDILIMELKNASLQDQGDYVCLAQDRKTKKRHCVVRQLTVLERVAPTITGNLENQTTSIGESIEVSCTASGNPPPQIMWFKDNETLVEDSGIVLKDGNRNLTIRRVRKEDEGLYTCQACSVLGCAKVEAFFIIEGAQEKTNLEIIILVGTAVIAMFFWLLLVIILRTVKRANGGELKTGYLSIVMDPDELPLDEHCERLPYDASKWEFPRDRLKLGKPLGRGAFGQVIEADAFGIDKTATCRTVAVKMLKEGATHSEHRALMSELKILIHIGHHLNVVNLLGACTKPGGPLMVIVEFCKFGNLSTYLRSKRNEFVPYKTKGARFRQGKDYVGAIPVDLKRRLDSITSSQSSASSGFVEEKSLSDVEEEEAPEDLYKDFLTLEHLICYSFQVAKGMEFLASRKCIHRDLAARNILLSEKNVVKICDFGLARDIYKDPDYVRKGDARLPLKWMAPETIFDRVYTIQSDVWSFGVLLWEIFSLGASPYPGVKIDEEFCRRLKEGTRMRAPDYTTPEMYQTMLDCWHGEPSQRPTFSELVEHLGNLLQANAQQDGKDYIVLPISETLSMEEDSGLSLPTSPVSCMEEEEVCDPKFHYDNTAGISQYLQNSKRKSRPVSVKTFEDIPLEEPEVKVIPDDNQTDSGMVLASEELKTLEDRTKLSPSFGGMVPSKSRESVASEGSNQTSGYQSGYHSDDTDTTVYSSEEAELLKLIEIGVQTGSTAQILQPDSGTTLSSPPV", "conditions": "cell-free assays; cited from earlier work"}, "[1]": {"test_system": "hiPSC chondrogenic pellets", "assay": "Biochemical analysis of cartilaginous matrix production (GAG/DNA) in hiPSC chondrogenic pellets", "assay_type": "cell-based, human", "conditions": "100 ng/ml WNT ligand + TGF-β3 vs TGF-β3 only", "experimental": "Chondrogenic differentiation. Cells dissociated at the Cp stage were resuspended at 5×10^5 cells per mL in chondrogenic medium consisting of DMEM/F-12, 1% FBS, 1% ITS+, 55 μM β-mertcaptoethanol, 100 nM dexamethasone (DEX; Sigma-Aldrich, #D4902), 1% NEAA (Gibco, #11140050), 1% P/S, 10 ng ml^−1 human transforming growth factor-beta 3 (TGF-β3; R&D Systems, #243-B3-010), 50 μg ml^−1 L-ascorbic acid 2-phosphate (ascorbate; Sigma-Aldrich, #A8960), and 40 μg ml^−1 L-Proline (proline; Sigma-Aldrich, #P5607). Cells were then centrifuged for 5 min at 300×g to form a pellet. Chondrogenic pellets were cultured at 37° C. for up to the timepoints required for various experiments.\nWNT-C59 and ML329 treatment for WNT and MITF inhibition. For WNT-C59 treatment for WNT inhibition during chondrogenesis, pellets were treated with either 10 ng ml^−1 TGF-β3 (control group) or a combination of 10 ng ml^−1 TGF-β3 and 1 μM WNT-C59 in a chondrogenic medium from d0 to d42 as appropriate. […]\nBiochemical analysis of cartilaginous matrix production. […] GAG content, as calculated based on the standard curve, was normalized to double-stranded DNA content to obtain the GAG/DNA ratio."}, "[2]": {"test_system": "CD146/CD166+ cells at the Cp stage", "assay": "FACS for progenitors at the Cp stage", "assay_type": "cell-based, human", "conditions": "with BMP4, 1 μM WNT-C59 or 100 ng/ml WNT3A", "experimental": "(§1) WNT ligands treatment during chondrogenesis. For WNT ligands treatment during chondrogenesis, pellets were treated with either 10 ng ml^−1 TGF-β3 (control group) or a combination of 10 ng ml^−1 TGF-β3 and 100 ng ml^−1 individual WNT ligand (WNT2B, WNT3A, WNT4, WNT5B, or WNT7B, all from R&D system) in chondrogenic medium from d0 to d42 as appropriate. For WNT ligands treatment during the Cp stage, cells were supplemented with either 20 ng ml^−1 BMP4 (R&D Systems, #314-BP-010) alone (control group), a combination of 20 ng ml^−1 BMP4 and 1 μM WNT-059, or a combination of 20 ng ml^−1 BMP4 and 100 ng ml^−1 WNT3A (R&D Systems, #5036-WN-010) in mesodermal differentiation medium from d7 to d12.\nFACS for progenitors. […] Data were analyzed using FlowJo software (version 10.5.3)."}, "[3]": {"test_system": "hiPSC chondrogenic pellets", "assay": "RT-qPCR of pellets treated with WNT ligands", "assay_type": "cell-based, human", "experimental": "as §1\nRT-qPCR. RNA of the pellets was isolated using the Total RNA Purification Kit according to the manufacture's protocol (Norgen Biotek, #37500). Reverse transcription of the RNA was performed using SuperScript VILO Master Mix (Thermo Fisher, #11755050). Fast SYBR Green Master Mix (Thermo Fisher, #4385614) was used for reverse transcription-quantitative polymerase chain reaction (RT-qPCR) according to the manufacturer's instructions on the QuantStudio 3 (Thermo Fisher). Gene expression was analyzed using the ΔΔCT method relative to undifferentiated hiPSCs with the reference gene TATA-box-binding protein (TBP)."}, "[4]": {"test_system": "hiPSC chondrogenic pellets", "assay": "Immunohistochemistry of collagens in pellets", "assay_type": "cell-based, human", "conditions": "pellet culture", "experimental": "as §1\nImmunohistochemistry. Histologic sections (8 μm thick) of the pellets were rinsed with xylenes three times and rehydrated before labeling. Antigen retrieval was performed with 0.02% proteinase K for 3 min at 37° C. for COL2A1 and COL6A1 and with pepsin for 5 min at room temperature for COL1A1 and COL10A1 followed by peroxidase quench then serum blocking for 30 min at room temperature. […]"}}, "data": [{"molecule": "CCN(CC)CCCCNc1ncc2cc(-c3cc(OC)cc(OC)c3)c(NC(=O)NC(C)(C)C)nc2n1", "note": "[PD173074]", "values": [{"measurement": "IC50", "setting": "VEGFR2", "value": "100 to 200", "unit": "nM"}]}, {"molecule": "B1", "values": [{"measurement": "GAG/DNA ratio", "setting": "[1]", "value": "significantly decreased"}, {"measurement": "percentage of CD146/CD166+ cells", "setting": "[2]", "value": "increased"}, {"measurement": "COL2A1, COL1A1, and COL10A1 expression", "setting": "[3]; 100 ng/ml WNT ligand + TGF-β3 vs TGF-β3 pellets", "value": "increased"}, {"measurement": "COL1A1 and COL10A1 staining/production", "setting": "[4]", "value": "higher intensity"}]}, {"molecule": "B2", "values": [{"measurement": "chondrogenic markers (SOX9, ACAN, COL2A1) and osteogenic marker (COL1A1)", "setting": "[3]; 100 ng/ml WNT ligand + TGF-β3 vs TGF-β3 only", "value": "significantly decreased"}, {"measurement": "expression of MITF", "setting": "[3]; 100 ng/ml WNT ligand, relative to TGF-β3 pellets", "value": "significantly lower"}]}]}
